# Numbering of substitutions follows the chain as printed. Names may count otherwise.
# B1: wild-type human mitochondrial aspartyl-tRNA synthetase (mt-AspRS) (enzyme)
# chain: IPEFSSFVVRTNTCGELRSSHLGQEVTLCGWIQYRRQNTFLVLRDFDGLVQVIIPQDESAASVKKILCEAPVESVVQVSGTVISRPAGQENPKMPTGEIEIKVKTAELLNACKKLPFEIKNFVKKTEALRLQYRYLDLRSFQMQYNLRLRSQMVMKMREYLCNLHGFVDIETPTLFKRTPGGAKEFLVPSREPGKFYSLPQSPQQFKQLLMVGGLDRYFQVARCYRDEGSRPDRQPEFTQIDIEMSFVDQTGIQSLIEGLLQYSWPNDKDPVVVPFPTMTFAEVLATYGTDKPDTRFGMKIIDISDVFRNTEIGFLQDALSKPHGTVKAICIPEGAKYLKRKDIESIRNFAADHFNQEILPVFLNANRNWNSPVANFIMESQRLELIRLMETQEEDVVLLTAGEHNKACSLLGKLRLECADLLETRGVVLRDPTLFSFLWVVDFPLFLPKEENPRELESAHHPFTAPHPSDIHLLYTEPKKARSQHYDLVLNGNEIGGGSIRIHNAELQRYILATLLKEDVKMLSHLLQALDYGAPPHGGIALGLDRLICLVTGSPSIRDVIAFPKSFRGHDLMSNTPDSVPPEELKPYHIRVSKPTDSKAERAHVMYLE
# notes: human mitochondrial aspartyl-tRNA synthetase (DARS2), residues 41-645; linker of 5 residues before the C-terminal 6-His tag; Homodimer; also called WT; WT mt-AspRS; not shown: His6, C-terminal, kept
# B2: human mt-AspRS mutant T136S (enzyme)
# chain: B1 chain with T96S
# notes: human mitochondrial aspartyl-tRNA synthetase (DARS2), residues 41-645, LBSL patient mutation 406A>T (T136S); linker of 5 residues before the C-terminal 6-His tag; Mutation found in LBSL patients; not shown: His6, C-terminal, kept
# B3: human mt-AspRS mutant L613F (enzyme)
# chain: B1 chain with L573F
# notes: human mitochondrial aspartyl-tRNA synthetase (DARS2), residues 41-645, LBSL patient mutation 1837C>T (L613F); linker of 5 residues before the C-terminal 6-His tag; Mutation found in LBSL patients; not shown: His6, C-terminal, kept
# B4: human mt-AspRS mutant L626Q (enzyme)
# chain: B1 chain with L586Q
# notes: human mitochondrial aspartyl-tRNA synthetase (DARS2), residues 41-645, LBSL patient mutation 1876T>A (printed as 626Q in the methods, L626Q elsewhere); linker of 5 residues before the C-terminal 6-His tag; Mutation found in LBSL patients; not shown: His6, C-terminal, kept
# B5: human mt-AspRS mutant R58G (enzyme)
# chain: B1 chain with R18G
# notes: human mitochondrial aspartyl-tRNA synthetase (DARS2), residues 41-645, LBSL patient mutation 172C>G (R58G); linker of 5 residues before the C-terminal 6-His tag; Mutation found in LBSL patients; not shown: His6, C-terminal, kept
# Key:
# [1] = target: the molecule itself; assay: SEC + other: SAXS; HPLC-SEC (Agilent Bio SEC-3, 15 °C) directly upstream of the SAXS cell; WT, Q184K and R263Q loaded at 7.4, 10 and 14 mg/ml; mobile phase 100 mM HEPES-Na pH 7.5, 250 mM NaCl, 5% glycerol, 1 mM TCEP; oligomer from Rg and Porod volume of each peak
# [2] = target: the molecule itself; assay: dynamic light scattering; 2 mg/ml in 100 mM potassium phosphate pH 7.5, 50 mM KCl, 0.1 mM EDTA, 10 mM β-mercaptoethanol, 10% glycerol, 20 °C; hydrodynamic diameter
protein,measurement,setting,value
B1,stoichiometry N,[1],2
B2,stoichiometry N,[2],2
B3,stoichiometry N,[2],2
B4,stoichiometry N,[2],2
B5,stoichiometry N,[2],2

# Source: PMC4664897, “Neurodegenerative disease-associated mutants of a human mitochondrial aminoacyl-tRNA synthetase present individual molecular signatures” (Scientific Reports, 2015)
